The target of this experiment is T1, CyaA-hemolysin (CyaA-Hly), 126-kDa truncated fragment of Bordetella pertussis adenylate cyclase-hemolysin … (Bordetella pertussis, strain not named; …, UniProt P0DKX7).
T1 construct: also called CyaA-Hly toxin; His-tagged CyaA-Hly domain
Kind of experiment: ELISA. For orientation: ELISA stands for enzyme-linked immunosorbent assay.

The record followed here is paper PMC4848625, “Structural Characterization of Humanized Nanobodies with Neutralizing Activity against the Bordetella pertussis CyaA-Hemolysin: Implications for a Potential Epitope of Toxin-Protective Antigen” (Toxins, 2016).

T1 sequence (P0DKX7 whole entry, looked up, the tested form may be a part): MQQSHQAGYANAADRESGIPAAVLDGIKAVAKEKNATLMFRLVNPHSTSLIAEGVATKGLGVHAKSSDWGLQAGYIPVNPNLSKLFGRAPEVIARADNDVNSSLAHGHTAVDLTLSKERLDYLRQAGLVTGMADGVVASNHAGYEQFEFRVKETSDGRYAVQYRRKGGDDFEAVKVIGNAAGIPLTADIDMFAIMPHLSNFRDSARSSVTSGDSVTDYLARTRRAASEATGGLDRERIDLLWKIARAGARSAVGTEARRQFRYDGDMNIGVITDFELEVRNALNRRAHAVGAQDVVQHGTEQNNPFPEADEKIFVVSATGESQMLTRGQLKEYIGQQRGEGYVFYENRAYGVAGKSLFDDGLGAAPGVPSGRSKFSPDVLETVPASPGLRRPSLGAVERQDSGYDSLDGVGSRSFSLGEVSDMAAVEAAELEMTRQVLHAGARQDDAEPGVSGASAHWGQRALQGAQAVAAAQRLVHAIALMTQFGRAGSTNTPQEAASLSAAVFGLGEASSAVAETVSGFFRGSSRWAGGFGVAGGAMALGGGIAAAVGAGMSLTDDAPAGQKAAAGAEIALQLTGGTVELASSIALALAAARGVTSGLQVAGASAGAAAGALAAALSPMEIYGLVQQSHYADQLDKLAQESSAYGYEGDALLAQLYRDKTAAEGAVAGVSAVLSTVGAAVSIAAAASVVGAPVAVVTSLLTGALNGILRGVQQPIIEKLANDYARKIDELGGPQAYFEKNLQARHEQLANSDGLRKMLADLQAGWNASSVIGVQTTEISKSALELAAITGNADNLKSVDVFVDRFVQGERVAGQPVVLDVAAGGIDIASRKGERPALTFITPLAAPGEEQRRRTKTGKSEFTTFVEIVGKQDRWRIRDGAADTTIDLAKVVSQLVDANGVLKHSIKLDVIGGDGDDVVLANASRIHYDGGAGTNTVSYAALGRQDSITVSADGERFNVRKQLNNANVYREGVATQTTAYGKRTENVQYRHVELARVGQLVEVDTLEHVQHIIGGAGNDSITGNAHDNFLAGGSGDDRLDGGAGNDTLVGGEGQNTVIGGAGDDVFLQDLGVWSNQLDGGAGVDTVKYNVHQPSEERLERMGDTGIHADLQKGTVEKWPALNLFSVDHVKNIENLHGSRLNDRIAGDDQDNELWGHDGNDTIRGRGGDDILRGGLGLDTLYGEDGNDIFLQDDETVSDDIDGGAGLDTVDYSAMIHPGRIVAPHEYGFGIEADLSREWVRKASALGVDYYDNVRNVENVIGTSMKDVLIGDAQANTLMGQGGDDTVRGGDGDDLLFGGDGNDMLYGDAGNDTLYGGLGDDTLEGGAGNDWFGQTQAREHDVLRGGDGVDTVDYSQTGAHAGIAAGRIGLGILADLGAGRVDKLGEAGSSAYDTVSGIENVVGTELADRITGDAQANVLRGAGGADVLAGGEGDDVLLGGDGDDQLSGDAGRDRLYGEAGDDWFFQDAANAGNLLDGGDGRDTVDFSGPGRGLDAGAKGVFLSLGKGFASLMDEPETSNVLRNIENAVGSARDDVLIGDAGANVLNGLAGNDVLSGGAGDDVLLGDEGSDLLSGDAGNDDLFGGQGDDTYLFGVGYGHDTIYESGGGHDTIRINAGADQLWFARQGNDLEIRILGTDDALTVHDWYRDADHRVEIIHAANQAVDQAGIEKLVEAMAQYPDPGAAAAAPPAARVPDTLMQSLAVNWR

B1: VHH2, E-tagged (clone no. 2, from the humanized-camel VH/VHH phage-display library) (VHH)
VHH: VQLVESGGGSVQAGGSLRLSCTVSGYTDNRYCMGWFRQAPGKEREGVAGINDFGGTTYYVDSVKGRFTISQNNAKNTVYLQMNSLKPEDTAIYYCAIAPRIWGSICSPGTQYNYWGQGTMVTVSS
notes: source: E. coli HB2151, phagemid pCANTAB5E, IPTG-induced, in lysate; not shown: E tag, C-terminal, kept
As for B1, the binding result (one partner purified) is “binds”.

B2: VHH2, His-tagged, purified and refolded (VHH)
VHH: VQLVESGGGSVQAGGSLRLSCTVSGYTDNRYCMGWFRQAPGKEREGVAGINDFGGTTYYVDSVKGRFTISQNNAKNTVYLQMNSLKPEDTAIYYCAIAPRIWGSICSPGTQYNYWGQGTMVTVSS
notes: not shown: His6, C-terminal, kept
Consider B2, for which the binding result (both partners purified) is “binds”.

B3: VHH37, His-tagged, purified and refolded (VHH)
VHH: VQLVESGGGSVQAGGSLRLSCTASGFTFDDFDMGWYHQAPGNECELVSTISNAGHTYYADSVKGRFAISRDNAKNMVYLQMNNLKPEDTAMYYCAAVGALLGFPLVLARPRGGYNYWGQGTMVTVSS
notes: as for B2
Take B3: the binding result (both partners purified) is recorded as “binds”.

B4: VHH37, E-tagged (clone no. 37, from the humanized-camel VH/VHH phage-display library) (VHH)
VHH: VQLVESGGGSVQAGGSLRLSCTASGFTFDDFDMGWYHQAPGNECELVSTISNAGHTYYADSVKGRFAISRDNAKNMVYLQMNNLKPEDTAMYYCAAVGALLGFPLVLARPRGGYNYWGQGTMVTVSS
notes: as for B1
On to B4, for which the binding result (one partner purified) is on record as “binds”.
